From the DeepSol protein solubility set come the findings set out here.

The data set is described as follows: soluble on expression in E. coli; label from the status in PepcDB or PDB records.
For the sequence “MSAVNRAAVEAVLRQYTDPYLNQDPVSAGCVRDIEVQGDRVTVRMELGYAAGLFKSGWAQMLQLAIEGLDGVSSAKVEISSVIAAHKAQAQIPGLANVKNVVAVASGKGGVGKSTTAANLALALAREGAKVGILDADIYGPSQGIMFGIAEGTRPKIKDQKWFVPIESHGVEVMSMAFLTDDNTPMVWRGPMVSGALLQLVTQTDWGNLDYLVIDMPPGTGDIQLTLAQKVPVAGAVIVTTPQDLALLDARKGVEMFRKVNIPVLGVVENMAVHICSNCGHAEHLFGEGGGEKLASQYDVELLASLPLSMLIREQADGGKPTVIAEPESQIAMVYQELARHVGARIVLQEAAAPAMPNITISDDLEHHHHHH”, the “soluble on expression in E. coli” value is recorded as “not soluble”.
As for “MGSDKIHHHHHHMEFEFCVQDPTDPGTRYLYEAIIGAAADATTWRGMYAFATRGGVDQLIEDPVVHEFMRRGGEIDLIVGIDAVTNRQTLERMQALEERHEHFHPKVFWNTTGGLFHPKISHFGYADGRTKLILGSGNLTPGGLRHNFEGYSVISGGRREAIDLSSLDAFIARHEADIRPIDQAALDRAALNIVRPVAALPGPRAPQLRPPRAVSREAVLDRILLAQVPAAGGRWSQVHFNTQITEQYFRVTDVATQRVYLTSIDAAGLRGEEEVRPVVFSQANGNHKIEIAAAKGLDYPDSPPLLVFRERQVRCFDYMLLMPDSPGYGELLGLSQALPTIGRGLRRAITDMATLSQAWPACPLLTAGDALDQTI”, the “soluble on expression in E. coli” value was “not soluble”.
With “MGSDKIHHHHHHMLETYALKNGAVFISDAHFLPKSPHLIHTLKELLSAKPPQVFFMGDIFHVLVGYLPLDKEQQKIIDLIHALSEISQVFYFEGNHDFSMRFVFNSKVMVFERQNQPVLFQYDNKRFLLAHGDLFITKAYEFYITQLTSTWARFFLTFLNLLSFKTLYPLFKKLIYQKPVRLWELEPKELQSFIEKRLKAYQNYIKDLNIGSIDGIIEGHFHLKSGAKIPLNTPIYCPLPSFYYEQSLFKVSSSVLEPSQNKDA”, the “soluble on expression in E. coli” value is reported as “not soluble”.
On to “MALQLGRLSSGPCWLVARGGCGGPRAWSQCGGGGLRAWSQRSAAGRVCRPPGPAGTEQSRGLGHGSTSRGGPWVGTGLAAALAGLVGLATAAFGHVQRAEMLPKTSGTRATSLGRPEEEEDELAHRCSSFMAPPVTDLGELRRRPGDMKTKMELLILETQAQVCQALAQVDGGANFSVDRWERKEGGGGISCVLQDGCVFEKAGVSISVVHGNLSEEAAKQMRSRGKVLKTKDGKLPFCAMGVSSVIHPKNPHAPTIHFNYRYFEVEEADGNKQWWFGGGCDLTPTYLNQEDAVHFHRTLKEACDQHGPDLYPKFKKWCDDYFFIAHRGERRGIGGIFFDDLDSPSKEEVFRFVQSCARAVVPSYIPLVKKHCDDSFTPQEKLWQQLRRGRYVEFNLLYDRGTKFGLFTPGSRIESILMSLPLTARWEYMHSPSENSKEAEILEVLRHPRDWVR”, for which the “soluble on expression in E. coli” value is on record as “not soluble”.
Turning to “MEEVIWEQYTVTLQKDSKRGFGIAVSGGRDNPHFENGETSIVISDVLPGGPADGLLQENDRVVMVNGTPMEDVLHSFAVQQLRKSGKIAAIVVKRPRKVQVAPLQGSPPLSHDDRGFEVIEEFDGRSFRSGYSERSRHSSHDMLSHSWEGNRERGRPHQRTQSRERERSRGRSLERGLDQEDYGRSRERSRGRSLERGLDRDFVSRDHSRGRSIDRDYDRDYERSYHEAYEPDYGGGYSPSYDRRAHPETRYERSRSREHLRSRSPSPESRSRHEHKGQHDPDRPIGVLLTKSKANEEYGLRLGSQIFIKEMTRTGLATKDGNLHEGDIILKINGTVTENMSLTDARKLIEKSRGKLQLVVLRDSKQTLINIPALNDSDSEVEDISEIESNRSFSPEERRQQYSDQDYHSSTEKLKERPSSREETSGRLSRMGATPTPFKSTGDITAAGVTEASREPRYQEEGPVPQPRTAPRVFLRPSPEDEAIYGPNTKMVRFKKGDSVGLRLAGGNDVGIFVAGIQEGTSAEQEGLQEGDQILKVNTQGFRGLVREDAVLYLLEIPKGETVTILAQSRADVYRDILACGRGDSFFIRSHFECEKETPQSLAFTRGEVFRVVDTLYDGKLGHWLAVRIGNELEKGLIPNKSRAEQMASVQNAQRENAGDRADFWRMRGQRSSGGVKKNLRKSREDLAAAVSVSTKFPAYEKVLLREAGFKRPVVLFGPIADIAMERSTELPDLFQTAKTEPKDAGSEKSSGVVRLNTVRQIIEQDKHALLDVTPKAVDLLNYTQWFPIVIFFNPDSRQGVKTIRQRLSPTSNKSSRKLFDQANKLKKTCSHLFTATINVNSANDGWFGSLKDSIQQQQNEAVWVSEGKMEGMDDDAEDRMSYLTAMGADYLSCDSRLISDFEDTDGEGGAYTDNELEEPAEEPLVSSITRSSEPVQHEENIRKSSPEPRAQMRRAASRDQLRELARPQPSSQSRPKARSQNREDSFDYSKSNLPATAGSEIPGGSTKGYPPPIAAKPAFGRPILKPSTPVPMPESEEVGESTEEQEDAPRSVLGRVKIFEKMDHKAKLQRMQELQEAQNARIEIAQKHPDIYAVPIKAPKPDAGLPPHMSSGPPEPQKAPSRLYQDTRGSYGSDPEEEEYRQQLAAHSKRGYYSQPSRYRDTEL”, the “soluble on expression in E. coli” value is recorded as “soluble”.
Consider “VVIPSPCCMFFVSKRIPENRVVSYQLSSRSTCLKAGVIFTTKKGQQSCGDPKQEWVQRYMKNLDAKQKKASPR”, for which the “soluble on expression in E. coli” value is listed as “soluble”.
Under “AEKQVTAGRHTYALPELFLVMATQNPIEQEGTYPLPEAQLDRFLLHLEVDYPDAEHELAILRINRGEAKGECSIERPSLSQQDIFTARQEVLDIHMAEAIEQYIVRLVMATRRASEYDSELDKWLAMGVSPRATIALDRCARAHAWLAGRDFVSPEDVQAMAYPVLRHRLLLSYHAQAEGVTSNQVIDKLLNLVGSA” stands “not soluble”.
With “MLQPKRTKFRKVHKGRNRGIASGTEVSFGTYGLKAVGRCRLTARQIEAARRAMSRAVKRQGKIWIRVFPDKPITEKPLEVRMGKGKGNVEYWVALIQPGKVLYEMDGVSEEVARNAFALAAAKLPVKTTFVTKTVMLEHHHHHH”, the “soluble on expression in E. coli” value is given as “not soluble”.
Then “MGSDKIHHHHHHMQPPLTDKQFKHTIDYDSRLLPYKYYHTCVMDGIPDILFHWHNEFEINYVYGGTARYHIDYDYFNSQAGDIILIRPNAAHSIHPIEQRGHETDTLLFHLDMLGASQLDHTSMLYLQPLQTDVFKCILRIQPQDPGYAEIRQCLLTIFELVRHQPPYFELPLKSRLFDFFYLLYRYRYIVRKNTDDMYRKNEKLRLLIEHIQQHYAENLTIEQLAEQMGYTKTHFMTIFKQQTGTSCMEFIIQVRLRAATELLTNTLKPVLEIATEVGFNNLSNFNRQFKQYYHTTPSSYRKQLRKNRTYTNFDK”, with “not soluble”; and “GPGSMKEIILYTRPNCPYCKRARDLLDKKGVKYTDIDASTSLRQEMVQRANGRNTFPQIFIGDYHVGGCDDLYALENKGKLDSLLQDVH”, with “soluble”.
Under “MAHHHHHHMTDMHTTLSRVILVAMLHDVADHKYDSDGTLRHRVEAFIKEERNATIETAESHAYALQTIEAVSFSAEKQRGKRWFTSVLPTEWLRVRDIVSDADKLEAIGYAGLLRCLEYTSHLLLPRGKTTEGEQHMKEGGEGRPHWSREFERQCLQNVREHFEEKLNLLPTEYIVTEPGRFLALPRRAEMVEALHQWEENGLPPLS” stands “not soluble”; under “MTASLMNTGKKNPFRDTQQGEYGNGDRNDWVMQASCRNGDPDALFVRGAEQRRAAAICRQCPVMIQCRADALDNKVEFGVWGGLTERQRRAILRKNPHVDSWEQFFAQGGELLGM”, “not soluble”; under “MLEHRRLFPGRRYDSRVYRSCASPMPYLLEEKLRGTAMEQRTPPSEAVISGPATPGLAEGKISAYLLDLATRTLRPPTFPPLSDSTVTAKDTVCLVGGPELAWLAVGMTPFRNITSVTLQQGELKSCSLQESMEWMRLAHLLKAAPEQVNGDGGEALALQRRLAAVRTDLVLLDLLANGHPTTGLPQVLATPFADVLDAYVDMEKEQHSAAAPSAPQNVGRLRSVLFDEEPVTGVHLEQPSLRLRLVSLQQLLVRIVRALSGAHVGLPAGNRPTPHAATLLEMTLQTHGLLCGGGVPSQAWSPTPDPADASSGGSSTAALNGTVLLDKFPRLSAEMLLQHVTYLLSNEAKQRTANAADGAGEGSDSIYLSPQRTRHFGLTGVETLLLSATQAEQVNQVLPLYVRGHTLPDEVASDITQTRNIHEAVRKTQRVLSRVLQQASQELASQSGSGTAAVDDAGHNGPHPALAHLPSHLFVRTAGARGPPPGWEYYGVHLGIKAEAMNVRYNLNASDTATLHLIDSSGSSNSGGVTATAGSEVGAESTRSGMPG”, “not soluble”.
For the sequence “MKRNAWEVYGEVLKTARELGLEGEEQEVAKALLAWPKERFHALAARVGLKAKYLRHDLLPIAFLPEPLREALQGGLPLREAHRLHRLLKRGELSLQDLTGKDPKALMALPARPGEVDPRLPVWFFPPEPWEEALPMAVARALVQLYTREGELVLDPMAGRGTVVEAARALDRRAWGGDIAPRGPLVERADIRDLPRRFRKEAALVVLHPPTFSTWLREEGYREEAEERYGEYIRHISSFLDLCRPTLAPGGKLVLVARPRRTLTPKDLEAGHDFFLAPWERALAEADFRPLSYHLAVSQDGRQDWHLFVGEPRG”, the “soluble on expression in E. coli” value is on record as “soluble”.
Turning to “MGSDKIHHHHHHMLCQFSFKNFKSYKETTTFDFQATSIPEFSESLLKSEKADALLPVGVIYGPNGGGKTNLLLALSCLISTVVKPIYELEKAREKIIIQQKISAAPFYFNEISRKMPTEFEVYFRQGKNEYRYNLSICGDDIVEESLYWKAIGGKRTGMVFDREGAEITLGASINKASINRSVNPKMPYLSFLAINYDIPVIVEVQKWFESCIVKNYANPIADRQIMFSDDESYRKRIVRALNDVDIDVSGYRYDEENHELYTQRMIEGKIYELSFNDESDGTKKMIAALPVILLALQEGRLVIIDELDAKLHPKLLRYVISLFKNKNVNKKGAQLLFTSHDMTTMKNTVFRRDEIWFAAENERHESEIYSLYEIRRENNERVNSTAAYDKQYLEGRYGADPYLTNMLAGGEWL”, the “soluble on expression in E. coli” value is given as “not soluble”.
Turning to “MSLDTIKVGFNIPLTGDIPKVGESSKFAAEILKGEINAAGGLKVGDKTYQLEFIYEDNESKAESATATALKLITQDGVLAIIGPQSSKQAIPAGQVCNDNKTPMISPWSTNPKTTENRPYVFRACFLDPFQGPVAAKFVTEEFKAKKAAVLYDIASDYPKGLAEFFKDAFEKIHGPGSVVAFETFTTKDKDFSAQLTKIVASGADVLFTPQYYDEVPLIVKQAQELGWKKPIMGSDSWGSAELMKLCGDACKGYCFSTHYAAAGAKGATKEFIDKYNTKYGYVPDDVAALTWDAINLLFTAVKNTGGLSGNLDKDRDAIKDKLTQVKDFEGITGKMTFAPGGNPTKCAVVVKISDKGEFEFFKSEGHHHHHH”, the “soluble on expression in E. coli” value is “soluble”.
Under “MGSDKIHHHHHHMKSVCLKITSLISLASRITTGLSLMSVMLASPLAVAQMGKHDALLLHAARVFDGHRMRTNTSVQVVNGKVTQIGPRGSFAPDNAKVIDLGDATILPGFIELHAHLSFQHVPADTVLKHGITTIRDVGGPVHKPYGGNGTLRMLTSGPIITAPGGYPIPLTGEKNIATPVSTEKEARETVRNLIDAGAVVIKIALEPGGEPGAPWSCGHAHVHHHNHAAAGNHAHHAQPNHEPPNHEAANDAHSSHPHPNTGLGTAWPLLAERVVKAIVDEAHVNKRRVTAHIAEVKGAEIAINAGIDEWAHVPCDIIPEPLLKKAVSQGVRIVTTLDTLSKCPGVAHNTRVWREQGGELLYGAEIAHPDVPRGIDAQELMYMMQMGNMETLEVLRAATSKAGEHLGLPLLGTLLPGAPADVIAIKGDPTHNLKNLEYPDLVISGGEIVLNNFPAAF” stands “not soluble”; under “MADESYDALSRGNKSNLRNEVVDMKKKPFSILFMGIEDYATKGQKGRSDSLIVVTLDPKNKTMKMLSIPRDTRVQLAGDTTGSKTKINAAYSKGGKDETVETVENFLQIPIDKYVTVDFDGFKDVINEVGGIDVDVPFDFDEKSDVDESKRIYFKKGEMHLNGEEALAYARMRKQDKRGDFGRNDRQKQILNALIDRMSSASNIAKIDKIAEKASENVETNIRITEGLALQQIYSGFTSKKIDTLSITGSDLYLGPNNTYYFEPDATNLEKVRKTLQEHLDYTPLEHHHHHH”, “soluble”.
